Test results: patent publication US20120244560A1 (ISHIHARA SANGYO, published 2012)

B1: monoclonal antibody produced by hybridoma ISK-MMH-TK1 (antibody, V domains shown)
VH: EVQLQQSGPELVKPGASVKISCKTSGYTFTKYTMHWVKQSHGKSLEWIGGINPNNGGSRYDQKFRGKATLTVDKSSSTAYMEFRSLTSEDSAVYYCARDFVYWGQGTLVTVSA
VL: DVLMTQTPLSLPVSLGDQASISCRSSQSIVHSNGNTYLEWYLQKPGQSPKLLIYKVSNRFSGVPDRFSGSGSGTDFTLKISRVEAEDLGVYYCFQGSHVPWTFGGGTKLEIKR
notes: used as hybridoma culture supernatant; The whole entries are named; they hold leader and primer-derived residues, X and * that are not part of the mature antibody; also called FERM BP-11267
B2: monoclonal antibody produced by hybridoma ISK-MMH-TK2 (antibody, V domains shown)
VH: DVQLQDSGPGLVKPSQTVSLTCTVTGISITTGNFRWSWIRQFPGNKLEWIGYIYYSGTITYNPSLTSRTTITRDTSKNQFFLEMNSLTAEDTATYYCARELYGYGYFDVWAAGTTVTVSS
VL: DVVMTQIPLSLPVSLGDQASISCRSTQSLVHSNGNTYLHWFLQKPGQSPKLLIYKVSNRFSGVPDRFSGSGSGTDFTLKISRVEAEDLGVYFCSQSKYVPRTFGGGTKLEIKR
notes: used as hybridoma culture supernatant; The whole entries are named; they hold leader and primer-derived residues, X and *; also called FERM BP-11266
B3: HIG-1-Flag (human HIG-1 polypeptide with a Flag tag downstream, made in E. coli as GST-HIG-1-Flag, GST cleaved off with PreScission Protease) (other, UniProt Q9Y241 1-93, looked up)
chain: MSTDTGVSLPSYEEDQGSKLIRKAKEAPFVPVGIAGFAAIVAYGLYKLKSRGNTKMSIHLIHMRVAAQGFVVGAMTVGMGYSMYREFWAKPKP
notes: Expressed from pGST-HIG-1-Flag (pGEX 6P-1); also called HIG-1-Flag protein; not shown: Flag tag downstream of HIG-1

Columns and labels:
[1] = biological target: B3; assay: competitive ELISA, coated HIG-1-Flag, soluble HIG-1-Flag as competitor
Method: Specifically, the HIG-1-Flag obtained in Example 2 as a solid-phase antigen was coated at a concentration of 2.5 μg/mL (50 mM carbonate buffer solution, pH 9.6, Sigma, No. C3041) in an amount of 50 μL per well, onto a plate at room temperature for 1 hour. Washing was performed 3 times with PBS-T, and then blocking was conducted with PBS (10% FBS-PBS) containing 10% FBS for 1 hour. After washing was performed 3 times with PBS-T, the PBS-T diluent of the antibody culture supernatant obtained in Example 1 was mixed with a diluted solution of a competitive substance (serial dilution with PBS-T) and reacted at room temperature for 1 hour. The reaction mixture was placed in a plate in an amount of 50 W., per well and allowed to stand for 1 hour at room temperature. […] After reaction, the 405 nm absorbance was measured.
These antibodies were both capable of quantitatively measuring a HIG-1-Flag in the range of 0.7 to 6.2 ng/mL. The dissociation constant Kd of the monoclonal antibody to a HIG-1-Flag was calculated with reference to “Antibody engineering; A Practical Approach” (edited by McCafferty J., et al.), Chapter 4, 77-97, IRL Press Oxford.

[2] = biological target: B2; assay: competitive ELISA: HIG-1-Flag coated at 2.5 µg/mL, ISK-MMH-TK2 culture supernatant (diluted 3,200-fold) premixed with soluble HIG-1-Flag as competing agent, AP-labelled anti-mouse IgG, A405nm
Method: Specifically, the HIG-1-Flag obtained in Example 2 as a solid-phase antigen was coated at a concentration of 2.5 μg/mL (50 mM carbonate buffer solution, pH 9.6, Sigma, No. C3041) in an amount of 50 μL per well, onto a plate at room temperature for 1 hour. Washing was performed 3 times with PBS-T, and then blocking was conducted with PBS (10% FBS-PBS) containing 10% FBS for 1 hour. After washing was performed 3 times with PBS-T, the PBS-T diluent of the antibody culture supernatant obtained in Example 1 was mixed with a diluted solution of a competitive substance (serial dilution with PBS-T) and reacted at room temperature for 1 hour. The reaction mixture was placed in a plate in an amount of 50 W., per well and allowed to stand for 1 hour at room temperature. […] As competitive substances, a HIG-1-Flag (on which 3-fold serial dilution was performed 8 times from 0.167 μg/mL), KLH (on which 3-fold serial dilution was performed 8 times from 100 μg/mL), or GST (on which 3-fold serial dilution was performed 8 times from 100 μg/mL) was used. After washing was performed using PBS-T 3 times, the alkaline phosphatase-labeled secondary antibody (anti-mouse IgG) diluted 1,000-fold with 10% FBS-PBS-T was placed in an amount of 50 per well and allowed to stand at room temperature for 1 hour. […] After reaction, the 405 nm absorbance was measured.

For B1, the Kd [1] was 220 pM.

With B2 the Kd [1] was 170 pM.

In the case of B3, the “IC50 (read off the curve)” value [2] is reported as roughly 2 ng/mL.
